Results on one molecule are retold here after publication PMC6332214, “A 7-Deazaadenosylaziridine Cofactor for Sequence-Specific Labeling of DNA by the DNA Cytosine-C5 Methyltransferase M.HhaI”.

The data set deals with T1, M.HhaI (DNA cytosine-C5 methyltransferase) (Haemophilus haemolyticus, UniProt P05102 1-327).
T1 sequence: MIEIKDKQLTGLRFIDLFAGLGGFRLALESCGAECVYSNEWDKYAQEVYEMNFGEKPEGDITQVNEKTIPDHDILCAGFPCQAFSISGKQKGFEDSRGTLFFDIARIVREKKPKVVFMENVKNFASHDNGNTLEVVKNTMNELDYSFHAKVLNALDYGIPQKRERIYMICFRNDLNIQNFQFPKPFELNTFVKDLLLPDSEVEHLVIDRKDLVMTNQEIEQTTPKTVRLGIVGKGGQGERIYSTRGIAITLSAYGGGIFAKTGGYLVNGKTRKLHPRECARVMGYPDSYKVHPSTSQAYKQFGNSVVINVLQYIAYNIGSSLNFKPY
The data set is described as follows: anion-exchange HPLC; complex of M.HhaI with coupling product; 80 uM cofactor 5, 10 uM duplex, 11 uM M.HhaI, 37 C 3 h; stable to chromatography, released at 65 C; 10 mM Tris-HCl pH 7.4, 50 mM NaCl, 0.05 mM EDTA, 2 mM beta-mercaptoethanol, 37 C; anion-exchange HPLC (Poros 10 HQ) in KCl gradient 0.2-1 M. The note with it: label: biotin (via cofactor 5); blunt.

B1: duplex ODN I5·II (coupling product with aziridine cofactor 5) (dsDNA)
DNA 1: TGTCAGCGCATGA
DNA 2: TCATGCGCTGACA
modifications: target C (position 7 of strand I) alkylated with 7-deazaadenosylaziridine-biotin cofactor 5; 5-methyl-dC at position 6 of strand II
Consider B1, for which the binding result is on record as “binds”.
